# Assays:
# [1] = molecular target: the molecule itself; experiment: crystal structure
# [2] = molecular target: the molecule itself; experiment: SAXS
Protein,stoichiometry N [1],binding result [2]
SFPQ-276–598 (domain or fragment) EGFKANLSLLRRPGEKTYTQRCRLFVGNLPADITEDEFKRLFAKYGEPGEVFINKGKGFGFIKLESRALAEIAKAELDDTPMRGRQLRVRFATHAAALSVRNLSPYVSNELLEEAFSQFGPIERAVVIVDDRGRSTGKGIVEFASKPAARKAFERCSEGVFLLTTTPRPVIVEPLEQLDDEDGLPEKLAQKNPMYQKERETPPRFAQHGTFEYEYSQRWKSLDEMEKQQREQVEKNMKDAKDKLESEMEDAYHEHQANLLRQDLMRRQEELRRMEELHNQEMQKRKEMQLRQEEERRRREEEMMIRQREMEEQMRRQREESYS,2,
SFPQ-276–598/NONO-53–312 heterodimer (complex) chain 1: EGFKANLSLLRRPGEKTYTQRCRLFVGNLPADITEDEFKRLFAKYGEPGEVFINKGKGFGFIKLESRALAEIAKAELDDTPMRGRQLRVRFATHAAALSVRNLSPYVSNELLEEAFSQFGPIERAVVIVDDRGRSTGKGIVEFASKPAARKAFERCSEGVFLLTTTPRPVIVEPLEQLDDEDGLPEKLAQKNPMYQKERETPPRFAQHGTFEYEYSQRWKSLDEMEKQQREQVEKNMKDAKDKLESEMEDAYHEHQANLLRQDLMRRQEELRRMEELHNQEMQKRKEMQLRQEEERRRREEEMMIRQREMEEQMRRQREESYS chain 2: EGLTIDLKNFRKPGEKTFTQRSRLFVGNLPPDITEEEMRKLFEKYGKAGEVFIHKDKGFGFIRLETRTLAEIAKVELDNMPLRGKQLRVRFACHSASLTVRNLPQYVSNELLEEAFSVFGQVERAVVIVDDRGRPSGKGIVEFSGKPAARKALDRCSEGSFLLTTFPRPVTVEPMDQLDDEEGLPEKLVIKNQQFHKEREQPPRFAQPGSFEYEYAMRWKALIEMEKQQQDQVDRNIKEAREKLEMEMEAARHEHQVMLM,,binds
SFPQ-369–598 (domain or fragment) HAAALSVRNLSPYVSNELLEEAFSQFGPIERAVVIVDDRGRSTGKGIVEFASKPAARKAFERCSEGVFLLTTTPRPVIVEPLEQLDDEDGLPEKLAQKNPMYQKERETPPRFAQHGTFEYEYSQRWKSLDEMEKQQREQVEKNMKDAKDKLESEMEDAYHEHQANLLRQDLMRRQEELRRMEELHNQEMQKRKEMQLRQEEERRRREEEMMIRQREMEEQMRRQREESYS,2,
SFPQ-276–535 (domain or fragment) EGFKANLSLLRRPGEKTYTQRCRLFVGNLPADITEDEFKRLFAKYGEPGEVFINKGKGFGFIKLESRALAEIAKAELDDTPMRGRQLRVRFATHAAALSVRNLSPYVSNELLEEAFSQFGPIERAVVIVDDRGRSTGKGIVEFASKPAARKAFERCSEGVFLLTTTPRPVIVEPLEQLDDEDGLPEKLAQKNPMYQKERETPPRFAQHGTFEYEYSQRWKSLDEMEKQQREQVEKNMKDAKDKLESEMEDAYHEHQANLL,2,

# Source: publication PMC4402515 (Nucleic Acids Research, 2015)
